Experimental findings from paper PMC9769802 are described below.

This assay has as its target recombinant fusion p30-mFc protein (ASFV p30 fused to mouse IgG1 Fc) (African swine fever virus (strain not stated)) (UniProt P34204). Nature of the assay: SEC-MALS. A general note: In gel filtration, larger molecules generally elute earlier.

One may read the stoichiometry N as the number of molecules, sites or subunits per partner or assembly.

For the substance “recombinant fusion p30-mFc protein (ASFV p30 fused to mouse IgG1 Fc) (from UniProt P34204 1-204) (Fc fusion)”, the stoichiometry N is 2.
